According to patent publication US10561706B2, “Isolated polypeptide and compositions comprising same” (B. G. NEGEV TECHNOLOGIES AND APPLICATIONS LTD., AT …, priority 2015, dated 2020):

Legend:
SOD1^G93A [1] = target: T1, SOD1^G93A (Homo sapiens, UniProt P00441, G94A); assay: TEM analysis of SOD1^G93A aggregate morphology; assay type: biochemical; settings: for morphology of SOD1^G93A aggregates by TEM versus SOD1^G93A alone: co-incubation with peptide, end of aggregation assay (FIG. 4B); for morphology of SOD1^G93A aggregates by TEM: 64 h at 37° C.
T1 construct: 6His (N); made in house; host or cells: E. coli BL21
Description: Samples for TEM imaging were prepared as follows: at the end of the aggregation assay, 2.5 μl samples (diluted 5-fold) were deposited on a carbon-coated copper 300 mesh. After 1 min, the excess liquid was carefully blotted by a filter paper. Followed 1 min drying at the ambient temperature, 5 μl of 2% uranyl acetate was added. After 1 min, the excess of the salt solution was carefully removed with a filter paper. The imaging was performed using a Tecnai G2 12 BioTWIN (FEI) transmission electron microscope with an acceleration voltage of 120 kV. Depending on the aggregate size, different magnifications were used. The visible features were sensitive to the electron beam exposure, indicating their organic origin.
(§1) The effect of the binding of SOD1-derived peptides to misfolded SOD1 on kinetics of SOD1 aggregation was tested. The time course of SOD1^G93A aggregation was followed by monitoring the fluorescence of a thioflavin T (ThT) probe.

SOD1^G93A [2] = target: T1, SOD1^G93A; assay: ThT aggregation assay of SOD1^G93A with SOD1-derived peptides; assay type: biochemical; settings: for ThT response / amyloid-like aggregation of SOD1^G93A on co-incubation with peptide: SOD1^G93A 50 μM, up to 64 h
Description: Prior to the aggregation assay, all mixtures containing protein and/or peptide were filtered through a 0.22 μm Millex-GV (PVDF) syringe filter, 4 mm (Millipore, USA). SOD1^G93A (50 μM) or peptide (600 μM) were incubated in 200 μl of 20 mM […] buffer, pH 7.0, 0.1 M NaCl, 5 mM EDTA, 1 mM TCEP, and 1% DMF in the presence of 50 μM Thioflavin T (Sigma Aldrich, Israel) in a black 96-well plate at 37° C. with continuous shaking (set to fast) using a SpectraMax Paradigm (Molecular Devices) ELISA reader. The fluorescence (Exc. 440 nm; Em. 485 nm) was measured at 5 min intervals.
as §1

SOD1^G93A [3] = target: T1, SOD1^G93A; assay: Peptide binding to fluorescently labeled SOD1^G93A by microscale thermophoresis (MST); settings: SOD1^G93A 300 nM, 1.5 h at r.t., peptide 0-100 μM
Source text: (§2) Peptides were synthesized by GL Biochem Ltd. (Shanghai, China). Peptide identity and purity (>90%) was confirmed by MS and HPLC analyses. For microscale thermophoresis (MST) analysis, the proteins (SOD1^WT and SOD1^G93A) were labeled with BLUE fluorescent dye NT-495-NHS (lysine chemistry) using a Monolith NT protein labeling kit Blue-NETS (Nano Temper Technologies, Munchen, Germany) at a protein (monomer):dye ratio of 1:3 as recommended by the manufacturer.
(§3) The assessment of peptide binding to the proteins was carried out using Monolith NT.115 (NanoTemper Technologies, Munchen, Germany). […] The binding data were analyzed by a non-linear regression using a logistic (three parameter) function implemented in Prism6 (GraphPad) program.
(§4) The binding of synthetic peptides to fluorescently labeled SOD1^WT or SOD1^G93A was assessed using a microscale thermophoresis technique (MST). Two overlapping peptides, designated SE-11 (SEQ ID NO: 6) (SOD1 aa. 90-109, […]) and SE-12 (SEQ ID NO: 7) (SOD1 aa. 106-125, […]), inflicted a specific, dose-dependent increase in the fluorescence of the target proteins (FIGS. 3A-D).

SOD1^WT [4] = target: T2, SOD1^WT (Homo sapiens, UniProt P00441); assay: Peptide binding to fluorescently labeled SOD1^WT by microscale thermophoresis (MST); settings: SOD1^WT 200 nM, 1.5 h at r.t., peptide 0-100 μM
T2 construct: 6His (N); made in house; host or cells: E. coli BL21
Source text: as §2, §3, §4

SOD1^WT [5] = target: T2, SOD1^WT; assay: Immunoprecipitation (B8H10 mAb) analysis of SOD1^WT misfolding; assay type: biochemical; settings: peptide 600 μM, 4 or 37° C.; effect more prominent at 4° C.
Description: Purified recombinant SOD1^G93A or SOD1^WT proteins […] were incubated for 4 h in 50 mM Tris-HCl buffer, pH 7.4, 150 mM NaCl, 1 mM EDTA, in the presence or absence of peptide SE-12 (SEQ ID NO: 7) (600 μM) at 4 or 37° C. After incubation, 10 μg of SOD1 proteins were transferred into immunoprecipitation (IP) buffer (50 mM Tris-HCl, pH 7.4, 150 mM NaCl, 1 mM EDTA, and 0.5% Nonidet P-40 plus protease inhibitors) and incubated at 4° C. overnight with B8H10 monoclonal antibody (MediMabs) crosslinked to protein G beads (Dynabeads, Invitogen) using dimethyl pimelimidate (Pierce) according to the manufacturer's instructions. The beads were magnetically isolated and washed three times with IP buffer. Samples were eluted by boiling in 2× sample buffer. Both bound and unbound IP fractions were then separated by SDS-PAGE, transferred to a nitrocellulose membrane and probed with goat anti-SOD1 antibody (C-17; Santa Cruz Biotechnology).
To test the function of the exposed ^106LSGDHC^111 epitope on misfolding of other SOD1 molecules, the effect of the SE-12 (SEQ ID NO: 7) peptide on SOD1 misfolding was tested using immunoprecipitation with a mAb (B8H10) that specifically recognizes misfolded SOD1. […] The effect of the peptide was more prominent at 4° C., when the intrinsic rate of SOD1^WT misfolding is low, than at 37° C. […]

[6] = 1:12 SOD1^G93A:peptide molar ratio

T2 sequence (P00441 whole entry): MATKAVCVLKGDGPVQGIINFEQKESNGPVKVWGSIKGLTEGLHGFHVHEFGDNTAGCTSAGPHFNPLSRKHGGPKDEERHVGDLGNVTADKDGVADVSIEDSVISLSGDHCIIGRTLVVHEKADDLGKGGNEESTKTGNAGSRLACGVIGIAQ
T1 sequence (P00441 2-154 G94A): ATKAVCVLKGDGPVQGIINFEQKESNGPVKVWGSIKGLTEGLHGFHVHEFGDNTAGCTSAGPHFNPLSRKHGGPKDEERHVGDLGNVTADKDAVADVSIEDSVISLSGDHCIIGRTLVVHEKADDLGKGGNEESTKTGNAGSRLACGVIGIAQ

Which results are given for “DKDGVADVSIEDSV (listed as Homo sapiens) [SE-20, SOD1-derived peptide]”?
morphology of SOD1^G93A aggregates by TEM versus SOD1^G93A alone (SOD1^G93A [1]): morphology was different; ThT response / amyloid-like aggregation of SOD1^G93A on co-incubation with peptide (SOD1^G93A [2]; 37° C., continuous shaking): formation of amyloid-like (ThT-responsive) aggregates

How did the “change in fluorescence of labeled SOD1^G93A (peptide binding)” value (SOD1^G93A [3]) turn out when “DKDGVADVSIEDSVISLSGD (listed as Homo sapiens) [SE-11, 20-mer peptide, SOD1 aa; 90-109]” was run?
Its value is “effect was obtained”.

And the “change in fluorescence of labeled SOD1^WT (peptide binding)” value (SOD1^WT [4])?
The value was “only with SOD1^G93A”.

And the “morphology of SOD1^G93A aggregates by TEM” value (SOD1^G93A [1]; [6])?
Its value is “large spherulites (0.5-1.0 μm diameter)”.

And the “morphology of SOD1^G93A aggregates by TEM” value (SOD1^G93A [1]; low peptide:SOD1 molar ratio (1:0.2 SOD1^G93A:peptide))?
The value was “suppressed the formation of characteristic fibril-like aggregates”.

What about the “ThT response of SOD1^G93A” value (SOD1^G93A [2]; low peptide:SOD1 molar ratios, 37° C., continuous shaking) of the same sequence?
The value was “inhibited the ThT response of SOD1^G93A”.

And the “ThT response of SOD1^G93A” value (SOD1^G93A [2]; peptide:SOD1 molar ratios higher than 3, compared to SOD1^G93A alone)?
The value was “significantly enhanced ThT response”.

What does the source list for “EDSVISLSGDHCIIGRT (listed as Homo sapiens) [SE-21, SOD1-derived peptide]”?
morphology of SOD1^G93A aggregates by TEM versus SOD1^G93A alone (SOD1^G93A [1]): different morphology (size); ThT response / amyloid-like aggregation of SOD1^G93A on co-incubation with peptide (SOD1^G93A [2]; 37° C., continuous shaking): did not prevent aggregation

How did the “morphology of SOD1^G93A aggregates by TEM versus SOD1^G93A alone” value (SOD1^G93A [1]) turn out when “IIGRTLVVHEKADD (listed as Homo sapiens) [SE-19, SOD1-derived peptide]” was run?
The value was “morphology was different”.

What about the “ThT response / amyloid-like aggregation of SOD1^G93A on co-incubation with peptide” value (SOD1^G93A [2]; 37° C., continuous shaking) of the same sequence?
The value was “formation of amyloid-like (ThT-responsive) aggregates”.

For “LSGDHCIIGRTLVVHEKADD (listed as Homo sapiens) [SE-12, 20-mer peptide, SOD1 aa; 106-125]”, which “amount of misfolded SOD1^WT immunoprecipitated by B8H10” value (SOD1^WT [5]) is on record?
Its value is “significantly increased the amount of accumulated misfolded species”.

And the “change in fluorescence of labeled SOD1^G93A (peptide binding)” value (SOD1^G93A [3])?
Its value is “increase in fluorescence was observed”.

And the “change in fluorescence of labeled SOD1^WT (peptide binding)” value (SOD1^WT [4])?
The value was “increase in fluorescence was observed”.

And the “morphology of SOD1^G93A aggregates by TEM” value (SOD1^G93A [1]; [6])?
The value was “amorphous aggregates were detected by TEM”.

And the “ThT response / amyloid-like aggregation of SOD1^G93A on co-incubation with peptide” value (SOD1^G93A [2]; 37° C., continuous shaking)?
The value was “inhibited the SOD1^G93A-triggered ThT response and fibril formation in a dose-dependent manner”.
